Experimental data published in PMC12416549 (2024).

T1: TNFR1 (Homo sapiens, UniProt P19438)
T1 chain: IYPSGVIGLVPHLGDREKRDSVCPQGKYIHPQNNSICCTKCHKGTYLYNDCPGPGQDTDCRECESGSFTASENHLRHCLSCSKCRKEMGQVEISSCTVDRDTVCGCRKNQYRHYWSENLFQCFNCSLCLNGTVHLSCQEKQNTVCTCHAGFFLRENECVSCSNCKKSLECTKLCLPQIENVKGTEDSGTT


Biological target: T1, TNFR1
Experiment: yeast display SC50

Row | Binder | apparent Kd (screen) [nM]
1 | E18C (designed binder) MTLQELLREEALRRAEACAFRYALELLAEKFPEQKEYLLDLAEEIESQIRSLSGVDVEDVRKFLDKEWAWVKELLAEHPAELAEVEAARAARLAELRAEVEAKVAA | 0.79
2 | E99W (designed binder) MTLQELLREEALRRAEAEAFRYALELLAEKFPEQKEYLLDLAEEIESQIRSLSGVDVEDVRKFLDKEWAWVKELLAEHPAELAEVEAARAARLAELRAWVEAKVAA | 0.593
3 | D40Q (designed binder) MTLQELLREEALRRAEAEAFRYALELLAEKFPEQKEYLLQLAEEIESQIRSLSGVDVEDVRKFLDKEWAWVKELLAEHPAELAEVEAARAARLAELRAEVEAKVAA | 0.446
4 | G54R (designed binder) MTLQELLREEALRRAEAEAFRYALELLAEKFPEQKEYLLDLAEEIESQIRSLSRVDVEDVRKFLDKEWAWVKELLAEHPAELAEVEAARAARLAELRAEVEAKVAA | 3.3
5 | L39C (designed binder) MTLQELLREEALRRAEAEAFRYALELLAEKFPEQKEYLCDLAEEIESQIRSLSGVDVEDVRKFLDKEWAWVKELLAEHPAELAEVEAARAARLAELRAEVEAKVAA | 1.16
6 | L64T (designed binder) MTLQELLREEALRRAEAEAFRYALELLAEKFPEQKEYLLDLAEEIESQIRSLSGVDVEDVRKFTDKEWAWVKELLAEHPAELAEVEAARAARLAELRAEVEAKVAA | 12.5
7 | E46S (designed binder) MTLQELLREEALRRAEAEAFRYALELLAEKFPEQKEYLLDLAEEISSQIRSLSGVDVEDVRKFLDKEWAWVKELLAEHPAELAEVEAARAARLAELRAEVEAKVAA | 0.49
8 | K72D (designed binder) MTLQELLREEALRRAEAEAFRYALELLAEKFPEQKEYLLDLAEEIESQIRSLSGVDVEDVRKFLDKEWAWVDELLAEHPAELAEVEAARAARLAELRAEVEAKVAA | 1.05
9 | P32N (designed binder) MTLQELLREEALRRAEAEAFRYALELLAEKFNEQKEYLLDLAEEIESQIRSLSGVDVEDVRKFLDKEWAWVKELLAEHPAELAEVEAARAARLAELRAEVEAKVAA | 0.653
10 | E9R (designed binder) MTLQELLRREALRRAEAEAFRYALELLAEKFPEQKEYLLDLAEEIESQIRSLSGVDVEDVRKFLDKEWAWVKELLAEHPAELAEVEAARAARLAELRAEVEAKVAA | 1.4
11 | A28E (designed binder) MTLQELLREEALRRAEAEAFRYALELLEEKFPEQKEYLLDLAEEIESQIRSLSGVDVEDVRKFLDKEWAWVKELLAEHPAELAEVEAARAARLAELRAEVEAKVAA | 5.84
12 | W68S (designed binder) MTLQELLREEALRRAEAEAFRYALELLAEKFPEQKEYLLDLAEEIESQIRSLSGVDVEDVRKFLDKESAWVKELLAEHPAELAEVEAARAARLAELRAEVEAKVAA | 2.48
13 | F20Y (designed binder) MTLQELLREEALRRAEAEAYRYALELLAEKFPEQKEYLLDLAEEIESQIRSLSGVDVEDVRKFLDKEWAWVKELLAEHPAELAEVEAARAARLAELRAEVEAKVAA | 2.05
14 | L74M (designed binder) MTLQELLREEALRRAEAEAFRYALELLAEKFPEQKEYLLDLAEEIESQIRSLSGVDVEDVRKFLDKEWAWVKEMLAEHPAELAEVEAARAARLAELRAEVEAKVAA | 0.956
15 | A105N (designed binder) MTLQELLREEALRRAEAEAFRYALELLAEKFPEQKEYLLDLAEEIESQIRSLSGVDVEDVRKFLDKEWAWVKELLAEHPAELAEVEAARAARLAELRAEVEAKVNA | 0.593
16 | Q48K (designed binder) MTLQELLREEALRRAEAEAFRYALELLAEKFPEQKEYLLDLAEEIESKIRSLSGVDVEDVRKFLDKEWAWVKELLAEHPAELAEVEAARAARLAELRAEVEAKVAA | 7.07
17 | R92D (designed binder) MTLQELLREEALRRAEAEAFRYALELLAEKFPEQKEYLLDLAEEIESQIRSLSGVDVEDVRKFLDKEWAWVKELLAEHPAELAEVEAARAADLAELRAEVEAKVAA | 0.718
18 | R21C (designed binder) MTLQELLREEALRRAEAEAFCYALELLAEKFPEQKEYLLDLAEEIESQIRSLSGVDVEDVRKFLDKEWAWVKELLAEHPAELAEVEAARAARLAELRAEVEAKVAA | 0.718

Row | Binder | apparent Kd (screen) [nM]
19 | A98L (designed binder) MTLQELLREEALRRAEAEAFRYALELLAEKFPEQKEYLLDLAEEIESQIRSLSGVDVEDVRKFLDKEWAWVKELLAEHPAELAEVEAARAARLAELRLEVEAKVAA | 0.539
20 | E5W (designed binder) MTLQWLLREEALRRAEAEAFRYALELLAEKFPEQKEYLLDLAEEIESQIRSLSGVDVEDVRKFLDKEWAWVKELLAEHPAELAEVEAARAARLAELRAEVEAKVAA | 0.539
21 | A23R (designed binder) MTLQELLREEALRRAEAEAFRYRLELLAEKFPEQKEYLLDLAEEIESQIRSLSGVDVEDVRKFLDKEWAWVKELLAEHPAELAEVEAARAARLAELRAEVEAKVAA | 0.539
22 | K62P (designed binder) MTLQELLREEALRRAEAEAFRYALELLAEKFPEQKEYLLDLAEEIESQIRSLSGVDVEDVRPFLDKEWAWVKELLAEHPAELAEVEAARAARLAELRAEVEAKVAA | 3
23 | V71T (designed binder) MTLQELLREEALRRAEAEAFRYALELLAEKFPEQKEYLLDLAEEIESQIRSLSGVDVEDVRKFLDKEWAWTKELLAEHPAELAEVEAARAARLAELRAEVEAKVAA | 1.27
24 | E58R (designed binder) MTLQELLREEALRRAEAEAFRYALELLAEKFPEQKEYLLDLAEEIESQIRSLSGVDVRDVRKFLDKEWAWVKELLAEHPAELAEVEAARAARLAELRAEVEAKVAA | 0.869
25 | L7A (designed binder) MTLQELAREEALRRAEAEAFRYALELLAEKFPEQKEYLLDLAEEIESQIRSLSGVDVEDVRKFLDKEWAWVKELLAEHPAELAEVEAARAARLAELRAEVEAKVAA | 11.4
26 | V85Q (designed binder) MTLQELLREEALRRAEAEAFRYALELLAEKFPEQKEYLLDLAEEIESQIRSLSGVDVEDVRKFLDKEWAWVKELLAEHPAELAEQEAARAARLAELRAEVEAKVAA | 0.869
27 | E84P (designed binder) MTLQELLREEALRRAEAEAFRYALELLAEKFPEQKEYLLDLAEEIESQIRSLSGVDVEDVRKFLDKEWAWVKELLAEHPAELAPVEAARAARLAELRAEVEAKVAA | 0.49
28 | K30W (designed binder) MTLQELLREEALRRAEAEAFRYALELLAEWFPEQKEYLLDLAEEIESQIRSLSGVDVEDVRKFLDKEWAWVKELLAEHPAELAEVEAARAARLAELRAEVEAKVAA | 0.653
29 | L38Q (designed binder) MTLQELLREEALRRAEAEAFRYALELLAEKFPEQKEYQLDLAEEIESQIRSLSGVDVEDVRKFLDKEWAWVKELLAEHPAELAEVEAARAARLAELRAEVEAKVAA | 16.7
30 | L24A (designed binder) MTLQELLREEALRRAEAEAFRYAAELLAEKFPEQKEYLLDLAEEIESQIRSLSGVDVEDVRKFLDKEWAWVKELLAEHPAELAEVEAARAARLAELRAEVEAKVAA | 1.54
31 | Q34L (designed binder) MTLQELLREEALRRAEAEAFRYALELLAEKFPELKEYLLDLAEEIESQIRSLSGVDVEDVRKFLDKEWAWVKELLAEHPAELAEVEAARAARLAELRAEVEAKVAA | 0.539
32 | R92Y (designed binder) MTLQELLREEALRRAEAEAFRYALELLAEKFPEQKEYLLDLAEEIESQIRSLSGVDVEDVRKFLDKEWAWVKELLAEHPAELAEVEAARAAYLAELRAEVEAKVAA | 0.49
33 | A88D (designed binder) MTLQELLREEALRRAEAEAFRYALELLAEKFPEQKEYLLDLAEEIESQIRSLSGVDVEDVRKFLDKEWAWVKELLAEHPAELAEVEADRAARLAELRAEVEAKVAA | 0.593
34 | V85Y (designed binder) MTLQELLREEALRRAEAEAFRYALELLAEKFPEQKEYLLDLAEEIESQIRSLSGVDVEDVRKFLDKEWAWVKELLAEHPAELAEYEAARAARLAELRAEVEAKVAA | 0.869
35 | L64F (designed binder) MTLQELLREEALRRAEAEAFRYALELLAEKFPEQKEYLLDLAEEIESQIRSLSGVDVEDVRKFFDKEWAWVKELLAEHPAELAEVEAARAARLAELRAEVEAKVAA | 0.869
